This is an account of results in patent publication US20050277575A1, “Therapeutic compositions and methods for treating diseases that involve angiogenesis” (priority 2004, published 2005).

In general, Km refers to the substrate concentration at which the rate is half of its maximum.

This data set concerns the target T1, t-PA-mediated plasminogen activation (Homo sapiens, UniProt P00750).
T1 construct: purchased Calbiochem
In words: t-PA-mediated plasminogen conversion kinetics with and without S100A4 (Example 12). Format: biochemical. Particulars: for acceleration of plasmin formation (K units): 1 μM S100A4, 100 nM plasminogen. The protocol:
The effects of peptide SEQ ID 6, peptide SEQ ID 38 and chimera SEQ ID 39 on acceleration oft-PA-mediated conversion of plasminogen to plasmin induced by S100A4 were measured. The kinetics of t-PA-mediated plasminogen activation were determined by measuring the amidolytic activity of plasmin formed during activation of plasminogen. All the experiments were done in 100 μl volume in 96-well plates in triplicates. Glu-plasminogen (Calbiochem) at the concentration of 100 nM was preincubated at 25° C. for 1 h in the presence or absence of 1 μM recombinant S100A4 in a buffer consisting of 50 mM Tris-HCl, pH 7.4, 100 mM NaCl and 5 mM CaCl2 or 5 mM EGTA. In some experiments, different concentrations of peptides or chimera were preincubated together with proteins. The reaction was initiated by addition of 5 nM t-PA (Calbiochem) and 125 μM chromogenic plasmin substrate, Chromozym PL (Roche). The reactions were monitored at 405 nm for 1.5 h in a SPECTRAmax PLUS^384 microplate spectrophotometer (Molecular Devices) under control of the SOFTmax PRO kinetic program (Molecular Devices). The initial rates of plasmin generation, during the first 10-15 min, were calculated using linear regression analysis of plots of A405 nm versus time 2. The initial rates of plasmin generation were reported in units (K) of A405 nm/min^2×10^3. […] The titration data were analyzed with the four-parameter logistic equation K=(A−D)/(1+(x/C)^B)D. If A, asymptotic minimum, =0, this equation is converted to the Michaelis-Menten equation K=D/(1+(C/[S])^B), where [S] is substrate concentration, D=Vmax, C=Km, and B is the Hill coefficient.
The addition of S100A4 to basal reaction (t-PA plus plasminogen) produced a significant increase in the plasminogen conversion rate. […] The stimulation of the plasminogen conversion by S100A4 was concentration-dependent with the half-maximal effect at 2.4 μM.
The kinetic parameters of t-PA-mediated plasminogen conversion were evaluated in the presence and absence of S100A4 as a function of plasminogen concentrations ranging from 3 nM to 3 μM.

T1 sequence (P00750 36-562): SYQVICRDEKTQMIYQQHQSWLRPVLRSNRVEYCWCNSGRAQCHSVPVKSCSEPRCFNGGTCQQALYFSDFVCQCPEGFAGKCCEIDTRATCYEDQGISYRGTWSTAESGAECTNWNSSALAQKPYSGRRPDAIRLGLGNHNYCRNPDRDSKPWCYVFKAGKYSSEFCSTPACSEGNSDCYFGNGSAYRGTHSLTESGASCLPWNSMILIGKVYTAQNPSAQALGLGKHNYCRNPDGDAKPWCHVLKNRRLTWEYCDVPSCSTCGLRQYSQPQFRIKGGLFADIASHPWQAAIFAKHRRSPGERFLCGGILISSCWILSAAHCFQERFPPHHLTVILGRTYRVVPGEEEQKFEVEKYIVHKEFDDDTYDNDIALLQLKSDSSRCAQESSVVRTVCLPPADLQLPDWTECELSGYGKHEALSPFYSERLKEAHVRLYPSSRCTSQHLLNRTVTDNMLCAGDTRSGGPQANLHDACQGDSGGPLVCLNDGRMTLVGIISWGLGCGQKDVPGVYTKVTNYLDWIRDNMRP

“S100A4: recombinant human S100A4 protein cloned from human placenta total RNA, Ca-binding protein of S100 family”: the EC50 (concentration-dependent stimulation, read-out: half-maximal effect of stimulation of plasminogen conversion) was found to be 2400 nM. The “plasmin generation in the absence of t-PA” value (no t-PA) is on record as “plasmin generation did not take place”. Moreover, under “plasminogen 3 nM to 3 μM, read-out: Km of the t-PA-mediated plasminogen conversion”, the Km was 0.059 µM. In addition, the “acceleration of plasmin formation (K units)” value came to 15 fold (presence of Ca2+) and 11 fold (presence of EGTA). Moreover, the “increase in the catalytic efficiency (Vmax/Km) of t-PA” value was found to be 7.6 fold (presence of EGTA) and 10 fold (presence of calcium).
